In patent US20040052799A1, “Nucleic acid and amino acid sequences relating to Helicobacter pylori for diagnostics and therapeutics” (Astra Aktiebolag, priority 1996, published 2004):

B1: H. pylori glutamate racemase (murI gene product) (Helicobacter pylori J99) (protein)
chain: MKIGVFDSGVGGFSVLKSLLKARLFDEIIYYGDSARVPYGTKDPTTIKQFGLEALDFFKPHEIELLIVACNTASALALEEMQKYSKIPIVGVIEPSILAIKRQVEDKNAPILVLGTKATIQSNAYDNALKQQGYLNISHLATSLFVPLIEESILEGELLETCMHYYFTPLEILPEVIILGCTHFPLIAQKIEGYFMGHFALPTPPLLIHSGDAIVEYLQQKYALKNNACTFPKVEFHASGDVIWLERQAKEWLKL
notes: made in house; host or cells: E. coli BL21(DE3) carrying pET-23-murI and pACYC-groE (GroES/GroEL co-expressed)
B2: E. coli Asd (Escherichia coli K-12) (protein)
chain: MKNVGFIGWRGMVGSVLMQRMVEERDFDAIRPVFFSTSQLGQAAPSFGGTTGTLQDAFDLEALKALDIIVTCQGGDYTNEIYPKLRESGWQGYWIDAASSLRMKDDAIIILDPVNQDVITDGLNNGIRTFVGGNCTVSLMLMSLGGLFANDLVDWVSVATYQAASGGGARHMRELLTQMGHLYGHVADELATPSSAILDIERKVTTLTRSGELPVDNFGVPLAGSLIPWIDKQLDNGQSREEWKGQAETNKILNTSSVIPVDGLCVRVGALRCHSQAFTIKLKKDVSIPTVEELLAAHNPWAKVVPNDREITMRELTPAAVTGTLTTPVGRLRKLNMGPEFLSAFTVGDQLLWGAAEPLRRMLRQLA
notes: made in house; host or cells: E. coli HMS174 pLysS, pET28b

How the values were obtained:
[1] = substrate: N[C@H](CCC(=O)O)C(=O)O; assay: Glutamate racemase activity, conversion of D-glutamate to L-glutamate (two enzyme and single enzyme coupled assays); type: biochemical, H. pylori; conditions: other: purified recombinant enzyme; 37.0 °C
Description: The activity of glutamate racemase, interconversion of the enantiomers of glutamic acid, was measured using D-glutamic acid as substrate. The method of Gallo and Knowles (Gallo, K. A. and Knowles, J. R., 1993, Biochmistry 32, 3981-3990) that was used to measure the glutamate racemase activity of Lactobacillus fermenti was adapted for the measurement of glutamate racemase activity of the H. pylori murI gene product isolated as a recombinant protein from E. coli. […] Initial rates were determined by following the increase in absorbance at 500 nm in a reaction volume of 200 μl containing 50 mM Tris-HCl, pH 7.8, 4% v/v glycerol, 10 mM NAD, 2 mM INT, 60 Units/ml L-glutamate dehydrogenase, 5 Units/ml diaphorase, and varying concentrations of either substrate (from 0.063 mM to 250 mM D-glutamic acid) or purified enzyme (from 1 μg to 50 μg). After a preincubation of all reagents except either the substrate (D-glutamic acid) or the enzyme (murI gene product) for a period of 5 minutes, reactions were initiated by adding the missing ingredient (i.e., the enzyme or the subtrate, as required), and the increase in optical density at 500 nm was measured in a Microplate Spectophotometer System (Molecular Devices, Spectra MAX 250). Measurements were followed for 20 minutes, and initial velocities were derived by calculating the maximum slope for the absorbance increases. […]

[2] = substrate: N[C@@H](CC=O)C(=O)O; assay: Asd assay, reverse reaction, NADPH formation; type: biochemical, E. coli; conditions: other: pH 7.5

| Protein | Km [1] | Km [2] |
| --- | --- | --- |
| B1 | 100 µM | – |
| B2 | – | 104 µM |
